Test results as given in the DeepSol protein solubility set.

Assay: soluble on expression in E. coli; label from the status in PepcDB or PDB records

| Sequence | soluble on expression in E. coli |
| --- | --- |
| MGSDKIHHHHHHMSTLPHLGFQVYQPCAPLLPYVRCYWQITRIAAPETRSTEFMHPEGGTGIIFNFGAPMHFDGWQHRAQCLVTGPTKQSTRLELSGRVDALGIRFWPGAGRAFLKTPLSEMLGQTLTPADLSLALLSDELAERLAVLPTAPERIALLETRLLHYLTAHGSQTQTTEPSMKYALNWIAEQKGQGEIRNLLTEIDISQRQLERLFQQNLGMSPKNYSILQRTGFARELLKSDTDSPLTDIGYQAGFYDQAHFIREFKQVIGITPGQFRSKALLRR | not soluble |
| MPVLSIIACGMLEDELVHVLSKDCELKQLIVVENGNNSGFLRKLRAGKCIPRTIPLDRVQMFFKTGFNPDFETLAKFLAPFPFLGKVCEKMNEKAGQQVSVVVNLLRLGLHADLELLKSEVFRNIREMAAFSDGILIFYGTCGHVLGELEKDFIDLGCPLFFLKDKAGEIVEDCISTALGGNEAYARAMLACRGKGTIYLTPMWASSWKNFEKGSGSKDLNNRYLKNSRYCLAVKIETGISYEPDFHQNVQEFARTFGMKTITLKGSSEITEQGYFDARKALVKNSDCLPKNHQDMEFLEHHHHHH | not soluble |
| MKRVGKQTWVFDEDIYIRAAATAVGPLEADGPLGGYFDIWHRDLYCGEETWELAERRLMSEAVARCLQKAGVSAHDVDLFLAGDLLNQNATSNYVARELPIPFLCLFGACSTSMQTLAAAAAFVAGGLADTALVATSSHNATAERQFRYPTELGVQKPKTATFTVTGAGAALVGRTPGRWRIRAATIGKVIDAGLTNPLDMGAAMAPAAADTIEQHFRDLGTSPSDYDLIVTGDLSRVGSVIVRELLAESGYDISDVYNDCGLMIYRPDQKVFAGGSGCACSAVVTYGYLFHELDRGTFHRLFVVATGALLSQTMVQQKQSIPAVAHGVVIEAAKLEHHHHHH | not soluble |
| SIHYTWQNALLDVSERLGVANNSVTLLQQKQANYVRAFADSYDFRTRINQGTPQDELQKWVTEQKKRYSLDFLSFQRVNSMENKFRFMDLTKRESFFDVLNREELEQLDPELAKRAEVPILADGGMEARGLVSRTVIPVYSQANDLIGFLDGGLLLNNSTVLVDQIRDLIYLSDNDRLRPVGTLTVFLDDLRVSTNVPLDSDHRLGRAIGTRVSAEVYNQVLSKGQQWVDRAYVYDAWYITAYQPIKDQYDNVIGMLYTGYLMWPFVKAYMTNIAE | not soluble |
| KGTSENKSTTATDTVQAEKPQSGTIHLTRAEFLKKIADYENHSKEWKYLGDKPAIVDFYADWCGPCKMVAPILEELSKEYAGKIYIYKVNVDKEPELARDFGIQGIPTIWFVPMKGEPQVNMGALSKEQLKGYIDKVLLKQ | soluble |
| MSLRRVFMKQIEGGICAVRGVSAYGIKPGKMGIAVIRAEGPAAGVFTRNKVVAAPVTLSRERIETEHRLSAVIANSGNANAFTGDDGFLDAMEMASMVAENLGLDPDNVAVASTGVIGRRLDVSFIKEHLPEVLEGLGSSPECSRAAAKAIMTTDRALKESAVELDCGVRIGAIAKGSGMIEPNMGTMLCFAYTDAKVPADVLDAALKIAVDKTFNMVVVDGDTSTNDMVLFTSTCKSGVKPCLDCLDDFEEGLVCVFTDLAKKMAKDGEGATKLIEARVTGAKKYEDARLVAKTIVRSPLVKSAIFGKDPNWGRVVAAAGYSGAELEQERLTLSFSGGGEEVELVKAGEISTASDLSLLKKIMANDEIIINLDLAMGEESATAWGCDLTYDYVRINAEYTTLEHHHHHH | not soluble |
| MKDTFRLENQTIYFGTERAISASPQTIWRYLTETDKLKQWFPELEIGELGVNGFWRFILPDFEETMPFTDYAEEKYLGVTWDTGIIYFDLKEQAPHQTLLVFSESLPENFTTPRHKDIAGWSIVLNRLKQVVETPDAAPEKIDFPQIENHYLEKLTNLEN | soluble |
| MGLSPGQTSVSFLWPLLEVRDHNTGRGLVPATVLTPGSPETLLELRQAFLGSRQARHGHDAAPSSGQQGCSVDRTAGRPVLGWRLRNSLTGQEGRQHLHLSGIRTSRKAKEYKPVFFGATEISVLMAVAESLREPPPPQWGWFLSSLFLKIF | not soluble |
| GSSCGNDESDPDSTVTIAMATVEKQPQYDAPYLVLDNGEKLWVVQHIVPYRDLKAGERIFGNYSFLEAGESGFAYNIRLNDYTLVPVQKIIGLNPDNMDSIGNMKVQIKDMWPSDDYLNVRFMLNFPSPQKPILNLVVNEMIPWTKDGYAHLELRYNNNGSQGRLVPGMVSFKLDDYSPENSELKGIKVLVNPVDGEEKTYIFSYPLTGEDVPGFNPLDLAELK | soluble |
| MRPGLSAKRLVVKVGSAVLTGERGLDLEAMAEIARQVAALREEGREVVLVSSGAVAAGMRRLGLKERPKDMPKKQALAALGQPLLMAFWQEAFAPFGLPVAQVLLTAEDLSSRSRYLNAKATLRALLDLGAIPVINENDTVAFEEIRFGDNDQLSARVAALVEAGLLALLSDVDALYEEDPKKNPQARPIPEVESVEAVLAHAGEENPLGSGGMKSKLLAARIAGRVGIPTLLLPGKRPGVLLQALSGAPLGTYFHARRRYRGEKAWLFGLLRPKGELVLDRGAVRALKERGASLLPAGVKEVRGRFSRGEAVRLLSEEGEEVGVGLANYASEEIARIKGRRSAEIEAVLGYRYTEEVVHRDHLALKEEA | soluble |
| MSLGDQKPATIYAPTVRVTPNPAWPQVSWQLLVAKPSAARIIDSPRINVRPTPGELQVYHGAGWAQPATDMLEDSVVRAFEDSGKIAAVARIGAGIRSDYKLAIDVRRFESDYAGQSLPAATIELNAKLLHSSDQRVVASRTFTVARPSSSTDTAAVAAAFEQALTQVTTELVGWTLITGQQDSQTLPRALEGHHHHHH | soluble |
| EDFFNAKVQEQIERYQRYHNTAYNLEPDIKFSPGGLRDLHLLYWVALRHSGALTLEAILQSGFIYPQEYQQLQESRAFLFKVRFALHLILKRYDNRLLFDRQIKVSELLGFRGEGNPAVEKMMKCFFQALHRISLISNLLIQHYRENVLSSNQDTVIDQLDDDFQLINQSLCLRNSFVFQEKPARILDLFFYLTQYEHVNIHSDTLRQL | not soluble |
| MTSDIKAILEQVVISPDVPIAEAIAQLDRAGTGSLVVCSADKKLYGLLTDGDVRRALLKAVDMGAPCGDIANRKPVITFVPLLPIEALRLMNHHDINHLPVLDAEGRVVDFLLRRDLVAEDELAARARRRLDSVVIPCSASIAEAIAQLDRAGTGALVLCSEGDRLHGLLTDGDIRRAVLRGISLDAPCQDVASRRPVTVEPSFSAAQALHLMNQHDINHLPVVDDTGRVVDFLLRRDLIADDQLNLSAVVMAGGYGKRLLPLTEQVPKPMLPVGDRPLLERTIDQLRRSGIREVNLTTHYLPDSIVEHFGDGDSFGVKLNYLKEDHPLGTAGGLKLMKKASDPFLVMNGDILTGVPFQEMFAYHRKNGAEITVGVRKYEVQVPFGVVECDDVRITGLKEKPSLTFFINAGIYLLEPSVCDLIPEGERFDMTDLIQKLLDEGRSVVSFPIMEYWLDVGRHEDYQKAQEDVRSGKIQLEHHHHHH | not soluble |
| MGSDKIHHHHHHKSTDYELKYSYAKKYFNAKQYSKSATLLDELVTIFKGTAYAEESLYLLAQSYYGQKDYQTASQYFETYYTTYPKGEFTELSRFYSGYGLYLDSPDPRLDQSQTYKAIEQLQLYLEYYPQSERAEEAQNIMFELQEKLAYKELMATRLYFNLGTYMGNNFQSCVITAQNALKNYPYSKYREEFMFLIIRAKYELALVSVEEKLQGRYRDVVDEYYNYMNEYPEGNYVKQVTKFYDYASKRITDAY | not soluble |
| MSLAAPLTVGFSQVGSESGWRAAETNVAKSEAEKRGITLKIADGQQKQENQIKAVRSFVAQGVDAIFIAPVVATGWEPVLKEAKDAEIPVFLLDRSIDVKDKSLYMTTVTADNILEGKLIGDWLVKEVNGKPCNVVELQGTVGASVAIDRKKGFAEAIRNAPNIKIIRSQSGDFTRSKGKEVMESFIKAENNGKNICMVYAHNDDMVIGAIQAIKEAGLKPGKDILTGSIDGVPDIYKAMIDGEANASVELTPNMAGPAFDALEKYKKDGTMPEKLTLTKSTLYLPDTAKEELEKKKNMGYEGHHHHHH | soluble |
| MRLEGLTIGVGFTGSFCTYDKIFIELENLVKEGANVHTIFSDVSQNIDCRFGNSEEFMKKAYELTGNKPIVTIEEAEPFGPKGIADIIIIAPCTGNTAAKLANGITDSPVLMAAKGHLRNDKPLVISISTNDALSFNFKNIGILLNSKNIYFVPFGQDNCKAKPNSMIAHTELIIPTIELALENKQLQPVIKSPHQLEHHHHHH | soluble |
| MSLVKAISSNLGYPRLGEKREWKRALEKFWNGAISEEELLAETKALRLHALKKQQEKGIDLIPVGDFSFYDQVLDTSVTFGIIPKRFQHDGGKVSLNTYFDIARGKSDAVASEMTKWFNTNYHYIVPELADADPKVLDNRALYYYEEAKKELGIEGKPVLVGPVTYLKLGKGNDAENFEALLDKFIPAYVEILKELERAGAKWVQIDEPYLATSFDKSEIKLFEKVYQAFQTAVPNLKIELQTYFESLDYYEEVVNLPVAAIGIDFVHDHGDSLEALKAHGFPEDKYLAAGVIDGRNVWRSDLDAKLSLLTEIADYVTDGKLIVQPSNSLLHVPVTKLSEPDLDEVILGGLSFADQKLDEIAILTKALTDGAESVTAELEDARAAVTALNESSHRNNLEVQEAIANLGNVRVDRELPFAERIKLQHAWLNLPLFPTTTIGSFPQSPEVRKTRADWLKGNITDAEYNAFIEKETARWIKIQEELDIDVLVHGEFERTDMVEYFGQKLAGFQATKFGWVQSYGSRAVRPPLIYGDVAFTEEITVKESVYAQSLTKRPVKGMLTAPVTIINWSFVRDDVPESVVANQVGLALRKEVEALERNGIKVIQVDEPALREGLPLKQARWEKYLNDAVYSFKLTTASVQNDTQIHTHMCYSDFDDIIDTISALDADVISIETSRSHGEIISTFEEVTYDKEIGLGVYDIHSPRVPTVTEIQDNIRRALRAIDAKQFWINPDCGLKTRKEPETIAALQDMIKATKEVRAEYQVLEKEGHHHHHH | soluble |
| MKKVYIKTFGCQMNEYDSDKMADVLGSAEGMVKTDNPEEADVILFNTCSVREKAQEKVFSDLGRIRPLKEANPDLIIGVGGCVASQEGDAIVKRAPFVDVVFGPQTLHRLPDLIESRKQSGRSQVDISFPEIEKLEHHHHHH | not soluble |
| MPAFDKPKVELHVHLDGSIKPETILYYGRRRGIALPANTAEGLLNVIGMDKPLTLPDFLAKFDYYMPAIAGCREAIKRIAYEFVEMKAKEGVVYVEVRYSPHLLANSKVEPIPWNQAEGDLTPDEVVALVGQGLQEGERDFGVKARSILCCMRHQPNWSPKVVELCKKYQQQTVVAIDLAGDETIPGSSLLPGHVQAYQEAVKSGIHRTVHAGEVGSAEVVKEAVDILKTERLGHGYHTLEDQALYNRLRQENMHFEICPWSSYLTGAWKPDTEHAVIRLKNDQANYSLNTDDPLIFKSTLDTDYQMTKRDMGFTEEEFKRLNINAAKSSFLPEDEKRELLDLLYKAYGMPPSASAGQNLAENLYFQ | soluble |
| MGAVVVKDLRKRIGKKEILKGISFEIEEGEIFGLIGPNGAGKTTTLRIISTLIKPSSGIVTVFGKNVVEEPHEVRKLISYLPEEAGAYRNMQGIEYLRFVAGFYASSSSEIEEMVERATEIAGLGEKIKDRVSTYSKGMVRKLLIARALMVNPRLAILDEPTSGLDVLNAREVRKILKQASQEGLTILVSSHNMLEVEFLCDRIALIHNGTIVETGTVEELKERYKAQNIEEVFEEVVKCSENF | not soluble |
| SCTLGRLVSPGPCPRPYLVITEQPKQRGMRFRYECEGRSAGSILGESSTEASKTQPAIELRDCGGLREVEVTACLVWKDWPHRVHPHSLVGKDCTDGVCRVRLRPHVSPRHSFNNLGIQCVRKKEIEAAIERKIQLGIDPYNAGSLKNHQEVDMNVVRICFQASYRDQQGHLHRMDPILSEPVYDKKSTNTSELRICRINKESGPCTGGEELYLLCDKVQKEDISVVFSTASWEGRADFSQADVHRQIAIVFKTPPYEDLEISEPVTVNVFLQRLTDGVCSEPLPFTYLPRDHDSY | soluble |
